Assay [1] concerns the target human plasma kallikrein (PKal) (human), P03952. The experiment in a line: Ki,app; Fab inhibition of PKal cleavage of a substrate peptide, Morrison fit. The note with it: remark: other sources report otherwise.
Assay [2] shares this target. Kind of assay: enzyme inhibition assay: rate (F/s) of substrate peptide cleavage by PKal against [Fab] (nM), fitted to the Morrison equation; apparent Ki (Ki,app); Table 3 prints 2.5 nM. The following applies: remark: other sources report otherwise.

human plasma kallikrein (PKal) (human), P03952, sequence (P03952 20-638 limits assumed): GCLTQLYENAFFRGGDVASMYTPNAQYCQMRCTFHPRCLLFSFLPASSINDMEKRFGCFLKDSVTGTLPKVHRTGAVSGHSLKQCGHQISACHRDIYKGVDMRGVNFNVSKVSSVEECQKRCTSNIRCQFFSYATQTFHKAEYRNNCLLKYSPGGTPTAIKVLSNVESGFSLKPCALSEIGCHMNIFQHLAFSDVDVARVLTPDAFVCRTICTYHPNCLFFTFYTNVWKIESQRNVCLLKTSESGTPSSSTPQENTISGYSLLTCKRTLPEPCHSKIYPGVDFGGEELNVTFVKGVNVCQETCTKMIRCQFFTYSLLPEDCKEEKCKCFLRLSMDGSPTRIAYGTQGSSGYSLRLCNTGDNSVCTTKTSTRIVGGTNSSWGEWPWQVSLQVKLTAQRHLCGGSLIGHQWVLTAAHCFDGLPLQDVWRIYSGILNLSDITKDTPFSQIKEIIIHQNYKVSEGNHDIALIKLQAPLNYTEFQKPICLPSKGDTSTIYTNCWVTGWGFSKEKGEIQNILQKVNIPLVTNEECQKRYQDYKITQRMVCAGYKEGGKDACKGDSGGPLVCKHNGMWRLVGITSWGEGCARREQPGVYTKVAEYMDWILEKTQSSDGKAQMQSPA

B1: M0162-A04 (Fab, V domains shown)
VH: EVQLLESGGGLVQPGGSLRLSCAASGFTFSHYIMMWVRQAPGKGLEWVSGIYSSGGITVYADSVKGRFTISRDNSKNTLYLQMNSLRAEDTAVYYCAYRRTGIPRRDAFDIWGQGTMVTVSS
VL: DIQMTQSPSTLSASVGDRVTITCRASQSISSWLAWYQQKPGKAPNLLIYKASTLESGVPSRFSGSGSGTEFTLTISSLQPDDFATYYCQQYNTYWTFGQGTKVEIK
In the case of B1, the Ki in assay [1] came out at 2.5 nM; in assay [2], 6.54 nM.

The record behind these values is US20150274841A1.
